In assay [1] the target is nitrilotriacetate monooxygenase component B from Mycobacterium thermoresistibile (Mycobacterium thermoresistibile). The assay can be described thus: crystal structure; apo structure at 1.6 Å, space group P212121; two independent dimers in the asymmetric unit; crystals from 0.2 M magnesium chloride, 0.1 M MES pH 6.0, 20% PEG 6000 at 289 K.
Assay [2] has the same target. The assay can be described thus: SEC; Superdex 75 26/60 in 20 mM HEPES pH 7.0, 300 mM NaCl, 5% glycerol, 1 mM TCEP. In general terms: Size exclusion chromatography separates by hydrodynamic size, large species first.

These results are taken from paper PMC3169409.

What is called stoichiometry N is a count of units in the complex or per binding partner.

On to “nitrilotriacetate monooxygenase component B from Mycobacterium thermoresistibile (enzyme)”, for which the stoichiometry N in assay [1] and in assay [2] was 2 throughout.
